Here are results for four molecules from patent US20050282743A1, “Molecular interactions in cells” (Arbor Vita Corporation, priority 2001, published 2005).

What all share (assay): G' assay
Assay [1] concerns the target T1, GST-MINT1 PDZ domains 1, 2, Q02410.
T1 chain: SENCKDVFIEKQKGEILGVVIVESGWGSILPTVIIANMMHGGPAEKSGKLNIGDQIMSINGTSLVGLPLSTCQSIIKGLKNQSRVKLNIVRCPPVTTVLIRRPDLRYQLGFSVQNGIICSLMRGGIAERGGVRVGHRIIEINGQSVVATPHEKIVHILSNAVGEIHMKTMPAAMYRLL

Assay [2] has as its target GST-KIAA807 [GST: P08515].
Assay [3] has as its target T2, GST-GRIP 1 PDZ domain 7 (Homo sapiens (Human)), Q9Y3R0.
T2 chain: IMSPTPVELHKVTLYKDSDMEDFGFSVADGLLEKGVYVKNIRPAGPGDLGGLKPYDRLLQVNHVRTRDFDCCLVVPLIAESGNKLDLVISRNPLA

For assay [4], the target named is T3, GST-KIAA0807(S) PDZ domain 1 (Homo sapiens (Human)), Q6P0Q8.
T3 chain: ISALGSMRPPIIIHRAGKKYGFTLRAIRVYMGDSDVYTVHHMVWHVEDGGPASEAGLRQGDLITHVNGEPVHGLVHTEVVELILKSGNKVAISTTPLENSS

The target in assay [5] is T4, GST-MINT1 PDZ domain 2 (Mus musculus (Mouse)), B2RUJ5.
T4 chain: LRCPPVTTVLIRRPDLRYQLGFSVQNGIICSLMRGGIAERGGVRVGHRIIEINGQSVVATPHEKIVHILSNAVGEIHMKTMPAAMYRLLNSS

Assay [6] concerns the target T5, GST-KIAA1526 PDZ domain 1 (Homo sapiens (Human)), Q9P202.
T5 chain: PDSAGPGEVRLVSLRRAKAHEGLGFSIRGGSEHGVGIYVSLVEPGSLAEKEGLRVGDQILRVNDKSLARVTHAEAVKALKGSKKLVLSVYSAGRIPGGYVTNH

Assay [7] addresses T6, GST-KIAA1719 PDZ domain 6 (Homo sapiens (Human)), Q9C0E4.
T6 chain: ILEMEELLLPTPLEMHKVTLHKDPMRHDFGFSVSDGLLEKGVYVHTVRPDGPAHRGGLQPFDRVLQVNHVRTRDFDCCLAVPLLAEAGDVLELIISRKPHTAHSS

Assay [8] deals with T7, GST-KIAA0382 PDZ domain 1 (Canis lupus familiaris (Dog) (Canis familiaris)), A0A8I3.
T7 chain: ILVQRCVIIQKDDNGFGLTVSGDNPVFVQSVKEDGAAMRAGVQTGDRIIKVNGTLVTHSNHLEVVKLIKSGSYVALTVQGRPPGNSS

Assay [9] concerns the target T8, GST-Shank 1 PDZ domain 1 (Homo sapiens (Human)), Q9UPX8.
T8 chain: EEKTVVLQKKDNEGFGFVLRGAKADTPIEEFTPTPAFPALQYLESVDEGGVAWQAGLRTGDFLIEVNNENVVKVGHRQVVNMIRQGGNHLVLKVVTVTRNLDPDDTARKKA

Assay [10] has as its target GST-KIAA1634 PDZ domain 5 (Homo sapiens (Human)), Q5TCQ9.
For assay [11], the target named is T9, GST-PDZK1 PDZ domains 2, 3, 4, Q5T2W1.
T9 chain: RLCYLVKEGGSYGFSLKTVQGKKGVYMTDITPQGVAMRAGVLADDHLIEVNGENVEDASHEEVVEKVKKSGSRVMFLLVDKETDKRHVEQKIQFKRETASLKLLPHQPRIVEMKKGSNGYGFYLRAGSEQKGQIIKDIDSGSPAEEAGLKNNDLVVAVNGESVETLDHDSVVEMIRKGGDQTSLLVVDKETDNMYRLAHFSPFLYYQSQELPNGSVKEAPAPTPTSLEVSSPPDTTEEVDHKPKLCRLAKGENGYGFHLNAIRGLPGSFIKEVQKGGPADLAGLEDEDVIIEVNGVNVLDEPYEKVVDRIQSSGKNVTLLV

In assay [12] the target is GST-KIAA1634 PDZ domain 1 (Homo sapiens (Human)), Q5TCQ9.
The target in assay [13] is GST-BAI-1 Associated Protein PDZ domain 6 (Homo sapiens (Human)), Q96QZ7.
The target in assay [14] is GST-PSD95 PDZ domains 1, 2, 3 (Homo sapiens), P78352.
For assay [15], the target named is GST-BAI-1 Associated Protein PDZ domain 2 (Mus musculus (Mouse)), Q6RHR9.
The target in assay [16] is T10, GST-KIAA0380 PDZ domain 1 (Homo sapiens (Human)), O15085.
T10 chain: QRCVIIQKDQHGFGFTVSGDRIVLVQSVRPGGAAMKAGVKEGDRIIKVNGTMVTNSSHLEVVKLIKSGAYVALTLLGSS

The target in assay [17] is T11, GST-novel PDZ gene PDZ domain 2 (Homo sapiens (Human)), Q9H5P4.
T11 chain: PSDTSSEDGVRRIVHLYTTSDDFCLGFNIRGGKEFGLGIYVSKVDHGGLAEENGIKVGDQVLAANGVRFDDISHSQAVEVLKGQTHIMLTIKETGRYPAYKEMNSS

Assay [18] concerns the target T12, GST-TIP1 PDZ domain 1 (Table 9 insert) (Homo sapiens (Human)), O14907.
T12 chain: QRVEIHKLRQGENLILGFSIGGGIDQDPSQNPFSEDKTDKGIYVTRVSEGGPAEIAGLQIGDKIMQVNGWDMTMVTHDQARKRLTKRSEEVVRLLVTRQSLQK

The target in assay [19] is T13, GST-MUPP1 PDZ domain 13 (Homo sapiens (Human)), O75970.
T13 chain: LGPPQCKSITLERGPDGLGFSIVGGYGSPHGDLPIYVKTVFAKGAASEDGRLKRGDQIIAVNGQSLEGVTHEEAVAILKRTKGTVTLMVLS

The target in assay [20] is T14, GST-Syntrophin 1 alpha PDZ domain 1 (Homo sapiens (Human)), Q13424.
T14 chain: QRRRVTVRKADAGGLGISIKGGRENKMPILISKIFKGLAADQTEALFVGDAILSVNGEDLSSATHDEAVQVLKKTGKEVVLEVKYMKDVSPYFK

Assay [21] addresses T15, GST-ENIGMA PDZ domain 1 (Homo sapiens (Human)), Q9NR12.
T15 chain: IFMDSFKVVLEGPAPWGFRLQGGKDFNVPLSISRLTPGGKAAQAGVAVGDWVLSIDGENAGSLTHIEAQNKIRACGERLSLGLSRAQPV

Assay [22] addresses T16, GST-LIM-RIL PDZ domain 1 (Homo sapiens (Human)), P50479.
T16 chain: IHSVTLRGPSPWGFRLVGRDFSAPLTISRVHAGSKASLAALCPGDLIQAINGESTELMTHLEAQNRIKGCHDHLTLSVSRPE

The target in assay [23] is T17, GST-APXL-1 PDZ domain 1 (Homo sapiens (Human)), Q13796.
T17 chain: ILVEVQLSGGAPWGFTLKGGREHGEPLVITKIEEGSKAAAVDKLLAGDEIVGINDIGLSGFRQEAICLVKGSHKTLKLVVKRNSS

Assay [24] deals with T18, GST-AF6 PDZ domain 1 (Homo sapiens (Human)), P55196.
T18 chain: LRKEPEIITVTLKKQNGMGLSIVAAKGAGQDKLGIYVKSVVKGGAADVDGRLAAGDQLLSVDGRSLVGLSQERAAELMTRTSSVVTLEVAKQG

The target in assay [25] is T19, GST-LIM Protein PDZ domain 1 (Homo sapiens (Human)), Q96HC4.
T19 chain: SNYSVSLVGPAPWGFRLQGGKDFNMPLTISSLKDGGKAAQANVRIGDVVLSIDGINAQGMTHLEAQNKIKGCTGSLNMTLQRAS

Assay [26] addresses T20, GST-DVL2 PDZ domain 1 (Homo sapiens (Human)), O14641.
T20 chain: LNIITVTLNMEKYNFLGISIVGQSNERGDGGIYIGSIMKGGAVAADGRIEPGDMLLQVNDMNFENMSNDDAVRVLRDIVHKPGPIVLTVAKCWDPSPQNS

For assay [27], the target named is GST-PAR3 PDZ domain 3 (Homo sapiens (Human)), Q8TEW0.
For assay [28], the target named is T21, GST-KIAA0973 PDZ domain 1 (Homo sapiens (Human)), Q9Y2H9.
T21 chain: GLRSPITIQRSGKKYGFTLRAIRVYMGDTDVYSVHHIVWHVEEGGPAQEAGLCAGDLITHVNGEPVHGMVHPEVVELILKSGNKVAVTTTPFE

The target of assay [29] is T22, GST-MUPP1 PDZ domain 11 (Homo sapiens (Human)), O75970.
T22 chain: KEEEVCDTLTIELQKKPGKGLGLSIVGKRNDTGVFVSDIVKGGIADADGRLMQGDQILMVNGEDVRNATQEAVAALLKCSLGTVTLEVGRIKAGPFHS

Assay [30] addresses T23, GST-MUPP1 PDZ domain 3 (Homo sapiens (Human)), O75970.
T23 chain: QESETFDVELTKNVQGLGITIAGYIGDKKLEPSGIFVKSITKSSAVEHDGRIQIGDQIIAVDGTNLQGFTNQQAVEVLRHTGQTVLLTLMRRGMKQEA

Assay [31] concerns the target GST-KIAA0316 PDZ domain 1 (Homo sapiens (Human)), Q14CM0.
Assay [32] deals with T24, GST-KIAA0561 PDZ domain 1 (Homo sapiens (Human)), O60307.
T24 chain: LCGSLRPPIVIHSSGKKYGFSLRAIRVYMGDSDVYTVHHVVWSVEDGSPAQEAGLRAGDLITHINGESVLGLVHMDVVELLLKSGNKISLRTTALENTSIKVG
Further: key of the grades not given here.

Chain of GST-KIAA807 [GST: P08515] (P08515 whole entry, the tested form may be a part): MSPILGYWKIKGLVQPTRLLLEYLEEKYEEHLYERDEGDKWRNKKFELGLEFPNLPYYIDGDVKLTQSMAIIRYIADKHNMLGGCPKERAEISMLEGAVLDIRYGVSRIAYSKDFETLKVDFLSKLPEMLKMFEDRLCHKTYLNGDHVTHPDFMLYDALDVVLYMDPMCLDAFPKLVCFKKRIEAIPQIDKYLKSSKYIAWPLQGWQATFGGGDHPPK
Chain of GST-KIAA0316 PDZ domain 1 (Homo sapiens (Human)), Q14CM0 (Q14CM0 72-159): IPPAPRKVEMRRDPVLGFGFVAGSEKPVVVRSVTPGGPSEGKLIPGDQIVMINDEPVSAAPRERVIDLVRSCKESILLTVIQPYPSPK
Chain of GST-PSD95 PDZ domains 1, 2, 3 (Homo sapiens), P78352 (P78352 62-395): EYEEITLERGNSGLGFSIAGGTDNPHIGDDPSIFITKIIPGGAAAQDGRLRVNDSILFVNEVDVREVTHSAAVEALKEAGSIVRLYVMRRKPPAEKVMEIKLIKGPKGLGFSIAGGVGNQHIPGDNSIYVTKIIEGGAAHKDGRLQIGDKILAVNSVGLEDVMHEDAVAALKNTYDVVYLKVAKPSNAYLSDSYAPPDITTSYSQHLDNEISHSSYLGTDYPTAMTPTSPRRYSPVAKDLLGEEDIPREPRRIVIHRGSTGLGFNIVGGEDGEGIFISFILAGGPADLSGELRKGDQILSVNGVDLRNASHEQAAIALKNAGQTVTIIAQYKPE
Chain of GST-KIAA1634 PDZ domain 1 (Homo sapiens (Human)), Q5TCQ9 (Q5TCQ9 401-502): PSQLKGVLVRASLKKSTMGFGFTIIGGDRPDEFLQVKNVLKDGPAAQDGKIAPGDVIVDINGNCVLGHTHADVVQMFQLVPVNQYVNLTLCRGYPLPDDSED
Chain of GST-BAI-1 Associated Protein PDZ domain 6 (Homo sapiens (Human)), Q96QZ7 (Q96QZ7 1143-1233): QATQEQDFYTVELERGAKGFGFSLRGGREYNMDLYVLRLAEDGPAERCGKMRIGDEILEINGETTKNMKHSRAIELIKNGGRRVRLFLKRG
Chain of GST-PAR3 PDZ domain 3 (Homo sapiens (Human)), Q8TEW0 (Q8TEW0 579-681): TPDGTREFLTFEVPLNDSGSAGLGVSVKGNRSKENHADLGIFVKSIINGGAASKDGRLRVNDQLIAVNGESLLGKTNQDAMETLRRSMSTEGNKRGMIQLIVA
Chain of GST-BAI-1 Associated Protein PDZ domain 2 (Mus musculus (Mouse)), Q6RHR9 (Q6RHR9 455-558): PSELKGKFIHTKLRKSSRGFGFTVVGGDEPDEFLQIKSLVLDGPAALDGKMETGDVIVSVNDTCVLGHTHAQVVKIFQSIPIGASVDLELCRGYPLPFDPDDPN
Chain of GST-KIAA1634 PDZ domain 5 (Homo sapiens (Human)), Q5TCQ9 (Q5TCQ9 other isoform, or with tags, fused parts or gaps): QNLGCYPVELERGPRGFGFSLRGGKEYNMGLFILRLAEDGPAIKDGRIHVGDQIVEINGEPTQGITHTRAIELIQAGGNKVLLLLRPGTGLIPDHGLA

B1: SSTR2 (somatostatin recepor 2) (peptide)
peptide: LNETTETQRTLLNGDLQTSI
modifications: not checked
Take B1: the Classification in assay [1] is 1 A450 class; in [2], 2 A450 class; in assay [3] it was 1 A450 class; in assay [4], 2 A450 class; in [5], 1 A450 class; in [6] it was 1 A450 class. In addition, the Classification in assay [7], in assay [8] and in [9] was 1 A450 class in each case.

B2: IL-8RA (peptide)
peptide: ARHRVTSYTSSSVNVSSNL
modifications: not checked
As to B2, the Classification in assay [10], in assay [11], in assay [12], in [13], in assay [4] and in assay [14] was 1 A450 class in each case. The Classification in [15], in assay [16], in assay [17], in [18], in [19] and in assay [20] was 1 A450 class throughout.

B3: FceRlb (peptide)
peptide: YSATYSELEDPGEMSPPIDL
modifications: not checked
As to B3, the Classification in assay [21] was 2 A450 class; in [22] it was 1 A450 class; in assay [23], 1 A450 class; in assay [24] it was 2 A450 class; in assay [25], 2 A450 class.

B4: MINT-3 (peptide)
peptide: KTMPAATYRLLTGQEQPVYL
modifications: not checked
For B4, the Classification was found to be 2 A450 class in assay [1]; 1 A450 class in assay [26]; 1 A450 class in [27]; 2 A450 class in assay [28]; 2 A450 class in assay [29]; 1 A450 class in [2]. For the same molecule, the Classification in [30] was found to be 1 A450 class; in [31], 2 A450 class; in assay [4], 1 A450 class; in [5], 2 A450 class; in assay [24], 1 A450 class; in assay [25], 1 A450 class. In assay [32], this molecule showed a Classification of 1 A450 class.
